Test results: patent publication US20240043528A1, “NANOBODY-OGA FUSIONS AND USES THEREOF” (President and Fellows of Harvard College, priority 2020, published 2024)

System: O-GlcNAcylated proteome
Assay: Quantitative TMT mass spectrometry of enriched O-GlcNAcylated proteome
Assay type: cell-based, human
Conditions: co-expression of GFP-Sp1, versus N2(D174N)+C3, n=4
Description: Purification of GalT1 (Y289L) enzyme and labeling of O-GlcNAcylated proteins with GalNAz were performed according to the procedure of Hsieh-Wilson and co-workers (Thompson, J. W., Griffin, M. E. & Hsieh-Wilson, L. C. Methods for the Detection, Study, and Dynamic Profiling of O-GlcNAc Glycosylation. Methods Enzymol. 2018, 598, 101-135). Briefly, cell samples in 6-well plates or 15-cm dishes were harvested and washed by PBS once. The lysis buffer (PBS with 2% SDS) was added into cell pellets and heated for 5 min at 95° C., followed by the sonication to sheer DNA. Protein concentrations were determined by BCA assay. Cell lysates were reduced and alkylated with 25 mM DTT at 95° C. for 5 min and 50 mM iodoacetamide at room temperature for 1 h respectively. Proteins were precipitated by the methanol/chloroform solution (aqueous phase:CH3OH:CHCl3=4:4:1) and resuspended in 1% SDS, 20 mM HEPES (pH 7.9) buffer with a concentration of 3.75 mg/mL. For 150 μg proteins, H2O (49 μL), 2.5×GalT labeling buffer (80 μL, final concentrations: 50 mM NaCl, 20 mM HEPES, 2% NP-40, pH 7.9), 100 mM MnCl2 (11 μL), 500 μM UDP-GalNAz (10 μL), 2 mg/mL GalT1 (Y289L) (10 μL) were added into cell lysates orderly. […]
For quantitative proteomics, after reaction with Biotin-Alkyne probe, proteins were precipitated and resuspended in 400 μL PBS containing 2% SDS. […]

B1: split OGA (N2+C3): split OGA fragments N2 and C3 without nanobody (protein)
chain 1: MEQKLISEEDLAIAMVQKESQATLEERESELSSNPAASAGASLEPPAAPAPGEDNPAGAGGAAVAGAAGGARRFLCGVVEGFYGRPWVMEQRKELFRRLQKWELNTYLYAPKDDYKHRMFWREMYSVEEAEQLMTLISAAREYEIEFIYAISPGLDITFSNPKEVSTLKRKLDQVSQFGCRSFALLFDDIDHNMCAADKEVFSSFAHAQVSITNEIYQYLGEPETFLFCPTEYCGTFCYPNVSQSPYLRTVGEKLLPGIEVLWTGPKVVSKEIPVESIEEVSKIIKRAPVIWDNIHANDYDQKRLFLGPYKGRSTELIPRLKGVLTNPNCEFEANYVAIHTLATWYKSNMNGVRKDVVMTDSEDSTVSIQIKLENEGSDEDIETDVLYSPQMALKLALTEWLQEFGVPHQYSSR
chain 2: MAYPYDVPDYAAIAEKPLYTAEPVTLEDLQLLADLFYLPYEHGPKGAQMLREFQWLRANSSVVSVNCKGKDSEKIEEWRSRAAKFEEMCGLVMGMFTRLSNCANRTILYDMYSYVWDIKSIMSMVKSFVQWLGCRSHSSAQFLIGDQEPWAFRGGLAGEFQRLLPIDGANDLFFQPP
global O-GlcNAc proteome versus inactive form: no significant difference from that of the inactive form
